Test results reported in US12559545.

B1: HENV-103 (antibody, V domains shown)
VH: QVQLQGSGPGLVKPSQTLSLTCSVSGGSVSRSGYYWGWIRQHPGKGLECIGYIYYSGITYYNPSLSGRLTISVDTSKNQFSLELSSVTAADTAVYYCARVWLGGGVFDFWGQGSLVTVSS
VL: EIVMTQSPATLSVSPGEGATLSCRASQSVSSNLAWYQQKPGQAPRLLIYDASTRATGIPARFSGSGSGTEFTLTISSLQSEDFAVYYCQQYNDWRTFGRGTKVEMR
B2: HENV-226 (antibody, V domains shown)
VH: EERLVQSGGGLAQPGQSLRLSCAGFGFTFTRYEMNWVRQAPGKGLEWIAHISTRGDTISYADSVKGRATISRDDTNNSLDLQMDSLRAEDTAIYFCARDRGSLSTRPPDSYHYYYHGMDVWGQGTTVIVSS
VL: EIVLTQSPATLSLSPGERATLSCRASQSIDTYLAWYQQKPGQAPRLLIYDASNRATGIPARFSGSGSGTDFSLTISSLEPDDFAVYYCQQRSNRPPRYTFGLGTRLEIK
B3: HENV-83 (antibody, V domains shown)
VH: QVQLVESGGGVVQPGGSLRLSCAASGFTFRSYSMNWVRQAPGKGPEWMAVISYDGSNKYYTDSVKGRFTISRDNSKNTLNLQMNSLTSEDTAIYYCARFRGGGRIAARPDDYGMDVWGQGTTVTVST
VL: DIQMTQSPSSLSASVGDRVTITCRASESVITYLNWYQQKPGKAPKLLIYGASTLESGVPSRFSGSGSGTVFTLTISSLQPEDIATYYCQQSYNMSPYTFGQGTKLEIK
B4: HENV-142 (antibody, V domains shown)
VH: QVRLQESGPRLVKPSQTLSLTCTVSGGSISSRDYYWSWIRQHPGKGLEWIGYIYYSGTTYYNPSLESRVTLSLDTSKNQFSLDLTSVTAADTAVYHCARVWLGGGVFDFWGQGTLVTVSA
VL: EIVMTQSPDTLSVSPGERATLSCRASHSVTTNLAWYQQRPGQAPRLLIFDASTRATGIPARFSGSGSGTEFTLTIGSLQSEDFAVYYCQQYNDGRTFGQGTKVEIK
B5: HENV-99 (antibody, V domains shown)
VH: QVLLVQSGAEVRKPGASVKVSCRASGYTFTDYYMHWVRQAPGQGLEWMGWINPNSGATKYAQKFQGRVTLTRDTSINTAYMELSGLRSVDTAVFYCASVPPSGFFYWGSDYWGQGTLVTVSS
VL: DVVLTQSPLSLPVTLGQPASISCRSSQSLVYSDGTTYLNWFQQRPGQSPRRLIYKVSYRDSGVPDRFSGSGSGTDFTLEISRVEAEDVGIYYCMHGTHWETWTFGQGTKVEIK
B6: HENV-100 (antibody, V domains shown)
VH: QVQLVQSGAEVKKPGASVKVSCKASGYTFTSYYINWVRQAPGQGLEWVGTINPSGGSTTYAQKFQGRVTVTRDTSTSTVYMDLSGLRSGDTAVYYCARDRKGLAATPVYSDYYYGMDVWGQGTTVTVSS
VL: EIVLTQSPATLSLSPGERATLSCRASQSVSSFLAWYQQKPGQAPRLLISDASKRATGIPARFSGSGSGTDFSLTISSLEAEDFAVYYCQQSTNWRITFGQGTRLELK
B7: HENV-150 (antibody, V domains shown)
VH: EVQLLESGGGLVQPGGSLRLSCAASGFTFSSSAMSWVRQTPGKGLEWVSTISGSGANTYYAASVKGRFPISRDNSKNTLFLQMNSLRAEDTAVYYCAKVSTVTFGGHVPRGSYFDYWGQGTQVTVSS
VL: SYVLTQPPSVSVAPGQTARIPCGGNNIGSKSVHWYQQKPGQAPVLVVYDENDRPSGIPERFSASKSGNTATLTISRVEAGDEADYYCQVWDSRSDHYVFGTGTKVTVL
B8: HENV-184 (antibody, V domains shown)
VH: QVQLVQSGTEVKNPGSSVKVSCKASGGTFSGFGISWVRQAPGQGLEWMGGVLPIFGSPNYAQKFQGRVTITADESTGTAYMDLSSLRSDDTAMYYCARDQSGGFFDYWGQGTLVIVSS
VL: EIVLTQSPATLSLSPGERATLSCRASQSVSSNLAWYQQKPGQAPRLLIYDASDRATGVPARFSGSGSGTDFTLTISSLEPEDFALYYCQQRYNWRVTFGQGTRLEIK
B9: HENV-141 (antibody, V domains shown)
VH: QVQLVQSGAEVKKPGSSVKVSCKASGGTFSSYTISWVRQAPGQGLEWMGRIIPISGITNYAQKFQGRVTITADKSTSTAYMELSSLRSEDTAVYYCAKDCYYGSGTYYGCRADYQWHHTMDVWGQGTTVTVSS
VL: DIQMTQSPSSLSASVGDRVTITCRASQGIRNDLGWFQQKPGKAPKRLIYAASSLQSGVPSRFSGSGSGTEFTLTISSLQPEDFATYFCLQHNTYPLTFGQGTKVEIK
B10: HENV-58 (antibody, V domains shown)
VH: QVQLVQSGAEVKKPGSSVKVSCKASGGTFSNYVISWVRQAPGQGFEWMGRIIPMIGISNYAQKFQDRVTITADKDESTTTAYMELRGLRSEDTAMYYCASSTVTEVGAWGQGTLVTVSS
VL: AIQLTQSPSSLSASIGDRVTITCRASQGISSALAWFQQKPGKPPILLIYDASSLESGVPARFSGSGSGTDFTLTISSLQPEDFATYYCQQFYNHPLTFGPGTKVDIK
B11: HENV-137 (antibody, V domains shown)
VH: EVQLVESGGGLVQPRGSLRLSCAASGFTFSGYWMSWVRQAPGKGLEWVAKIKKDGSEKTYVDSVKGRFTISRDNAKDSLYLQMNSLRAEDTAVYYCARERLLVPAAIVGLDYYYAMDVWGQGTTVTVSS
VL: DIQMTQSPSSLSASVGDRVTITCRASQNMSTYLNWYQQKPGKAPKFLIYGASRLQNGVPSRFSGGGSGTDFTLTISSLQPEDFATYYCQQSYNIPITFGQGTRLEIK
B12: HENV-117 (antibody, V domains shown)
VH: QVQLQQWGAGLLKPSETLSLTCDLSGGSFTNYYWTWIRHLPGKGLEWLGEINHSGRTNYSPSLKSRVTISVDTSKNQFSLRLSSVTAADTAVYYCARDIRKLAPKPHSYDLYYGMDVWGQGTTVTVSS
VL: EIVLTQSPGTLSLSPGERATLSCRASQSVGSNYLTWYQQKPGQPPRLLIYGASNRAAGIPDRFSGSGSGTDFTLTISRLEPEDFAVYYCQQYETSSRTFGQGTKVDIR
B13: HENV-98 (antibody, V domains shown)
VH: AVQLVESGGGLVQPGGSLRLSCEASGFTFSGYWMSWVRQAPGKGLEWVANIKGDGSEKYYVDSVKGRFTIFRDNAKTSLYLQVNSLRAEDTAVYYCARERHFLAARPGYYIYSGLDVWGPGTTVTVSS
VL: DIQMTQSPSSLSASVGDRVTITCRASQSIDNYLNWYQQKPGKVPKLLIYAASNLQSGVPSKFSGGGSGTDFTLTISSLQPDDFATYYCQQSFGTPRTFGQGTRVEIK
B14: HENV-242 (antibody, V domains shown)
VH: QVQLVQSGAEVKKPGSSVTVSCKTSGGTFSGYAVSWVRQAPGQGLEWMGRIVPQFNIPNYAQKFQDRVTITADESTGTSYMELSSLRSDDTAVFYCARENIQTIFGVVAMMGGGGYFDSWGQGTLVTVSS
VL: DIQMTQSPSSLSASVGDRVTITCQANQDINTYLNWYLQKPGKAPQLLVFDASNLVTGVPSRFSGGGSRTDFTLTIDSLQPEDIGTYYCQQYDHLPRRTFTFGPGTKVDLK
B15: HENV-188 (antibody, V domains shown)
VH: QVQVVESGGGVVHPGRSLRLSCAGSGFIFNNYAFHWVRQAPGGGLEWMAYISYDGRYKYYAASVRGRFTISRDDSKNTLYLQMSSLRTEDTALYYCAISDYAEPLDNWGQGTLVTVSS
VL: QIVLTQSPATLSLSPGDRATLSCRASQSVSSNVAWYQQKPGQAPRLLIYNVSNRATGIPARFSGSGSGTDFTLTISSLEPEDFAVYYCHQRTNWPLTFGGGTKVEIK
B16: HENV-122 (antibody, V domains shown)
VH: EVQLLESGGGLVQPGGSLRLSCAASGFTFSTNAMSWVRQAPGKGLEWVSTVSGSGAHPNYGDSVKGRFTISRVNSKNTLFLQMSSLRAEDTAIYYCARVSTVTVGGHIPRGYYFDYWGQGTLVTVSS
VL: EILLTQSPGTLSLSPGERATLSCRASQSASSSYLAWYQQKPGQAPRLLIYGASTRATGIPDRFSGSGSGTEFTLTISRLESEDFAVYYCHHYGSSRTFGQGTKVEVK

Molecular target: NiVB-G (Nipah virus, strain Bangladesh)

Binder	EC50 [nM]
B1	1.34
B2	0.361
B3	2.79
B4	13
B5	1.16
B6	0.514
B7	0.332
B8	2.32
B9	0.778
B10	1.44
B11	0.84
B12	1.2
B13	0.58
B14	7.67
B15	1.26
B16	0.382
